In the test the target is Triton X-100-insoluble residue of platelets (platelet cytoskeleton) (human (endogenous in platelets)) (UniProt P60709). The test can be described thus: co-sedimentation.

As for “platelet surface glycoprotein GPIII (from UniProt P05106 27-788) (natural protein)”, the percent of radioactivity in the supernatant fraction, without m1 is above 95%.
